41 sequences from the nanobody polyreactivity screen of Harvey et al. (2022) can be followed below.

The data set is described as follows: yeast display, Sf9 membrane polyspecificity reagent, FACS + sequencing; frameworks hold sequencing errors. In a few lines:
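In a synthetic yeast display library (Saccharomyces cerevisiae BJ5465), nanobody expression was induced with galactose for 36–48 hours. FACS gates were set low and high (top ~1%) using anti-HA fluorescence for expression and streptavidin fluorescence for binding of the Sf9 membrane reagent. Each polyreactivity label is drawn from the gate of origin.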
For the sequence “QVQLVESGGGLVHAGGSLRLSCAASGSTFLPNAMVWYRQSHGKERELVAAISYRGGGTFYADSVKGRFTISRDNAKNTVYLQMNSLKPEDTAVYYCAADWSWFDNFDYWGQGTQVTVSS”, the “polyreactivity (PSR sort gate)” value is recorded as “low polyreactivity”.
Consider “QVQLVESGGGLVQAGGSLRLSCAASGRTFAVYAMGWYRQAPGKERELVAAITLGASRTYYADSVKGRFTISRDNAKNTVYLQMNSLKPEDTAVYYCNAVGRRNVDSSLNDYWGQGTQVTVSS”, for which the “polyreactivity (PSR sort gate)” value was “low polyreactivity”.
Regarding “QGQLVESGGGLVQAGGSLRLSCAASGSTYPNNTMGWYREAPGKEWEFVAAITGDGGTTYYADSVKGRFTISRDNAKNTVYLQMNSLKPEDSAVYYCAVPYPAEGYGVDYWGQGTQVTVSS”, the “polyreactivity (PSR sort gate)” value is on record as “low polyreactivity”.
For “QVQLVESGGGLVQAGGSLRLSCAASGSTFLINAMGWYRQAPGKERELVAAISRDGSTNYADSVKGRFTISRDNAKNTVYLQMNSLKPEDTAVYYCAAVQGISVGRQPGYDYDYWGQGTQVTVSS”, the “polyreactivity (PSR sort gate)” value is reported as “low polyreactivity”.
For “QVQLVESGGGLVQAGGSLRLSCDASGRTFASNVMGWYRQAPGKERELVAAISRRGGSTYYADSVKGRFTISRDNAKNTVYLQMNSLKPEDTAVYYCNADDKAQSDYWGQGTQVTVSS”, the “polyreactivity (PSR sort gate)” value is given as “high polyreactivity”.
The result for “QVQLVESGGGLVQAGGSLRLSCAASGFTFYPYVMGWYRQAPGKERELVAAINSGGARTYYADSVKGRFTISRDNAKNTVYLQMNSLKPEDTAVYYCAARTVVGGRIYYYWGQGTQVTVSS” reads “high polyreactivity”; that for “QVQIVESGGGLVQAGGSLRLSCAASGRILEGYAMGWYRQAPGKERELVAAISFSTTTTYYADSVKGRFTISRDNAKNTVYLQMNSLKPEDTAVYYCAADSQQSDYDYWGQGTQVTVSS”, “high polyreactivity”; that for “QVQLVESGGGLVQAGGSLRLSCAASGIIVPNAMGWYRQAPGKERELVAVITSGGSTYYADSVKGRFTISRDNAKNTVSLQMNSLKPEDTAVYYCNKDYAAIDRYDSWGQGTQVTVSS”, “low polyreactivity”.
In the case of “QVQLVESGGGLVQAGGSLRLSCAASGRTFRRNVMGWYRQAPGKERELVAAISSGANTNYADSVKGRFTISRDNAKNTVYLQMNSLKPEDTAVYYCAAGEGWRSRTFDYWGQGTQVTVSS”, the “polyreactivity (PSR sort gate)” value was “low polyreactivity”.
Turning to “QVQLVESGGGLVQAGGSLRLSCAASGRIFSAYAMGWYRQAPGKEREFVAAITQSGGSTYYADSVKGRFTISRDNAKNTVYVQMNSLKPEDTAVYYCAAGDAYYTEALPFGEYDYWGQGTQVTVSS”, the “polyreactivity (PSR sort gate)” value is recorded as “low polyreactivity”.
Then “QVQLVESGGGLVQAGGSLRLSFAASGSTFDNYAMGWYRQAPGKERELVAAIRRGGSTYYADSVKGRFTISRDNAKNTVYLQMNSLKPEDTAVYYCNAPITRFEGYFYWGQGTQVTVSS”, with “high polyreactivity”; and “QVQLVESGGGSLRLSCAASGLTFGGYTMGWYRQAPGKERELVAAISSSDSTNYADSVKGRFTISRDNAKNTVYLQMNSLKPEDTAVYYCAADSGQWSRYSSFGDEGDSWGQGTQVTVSS”, with “low polyreactivity”.
“QVQLVESGGGLVQAGGSLRLSCDASGSIFLFNAMGWYIQAPGKERELVASISRASSTSYADSVKGRFTISRDNAKNTVYLQMNSLKPEDTAVYYCAAVVASFEFRFDYWGQGTQVTVSS”: the “polyreactivity (PSR sort gate)” value is “low polyreactivity”.
With “QVQLEESGGGLVQAGGSLRLSCAASGFTLRGYAMGWYRQAPGKERELVAAINGGGSTYYADSVKGRFTISRDNAKNTVYLQMNSLKPEDTAVYYCAVRIRKTAFRVLRYNYWGQGTQVTVSS”, the “polyreactivity (PSR sort gate)” value is recorded as “high polyreactivity”.
For “QVQLVESGGGLVQEGGSLRLSCAASGSTSQYNDMGWYRQAPGKERELVAAITNCGSTNYADSVKGRFTISRDNAKNTVYLQMNSLKPEDTAVYSCNADYGQERPGYGYGYWGQGTQVTVSS”, the “polyreactivity (PSR sort gate)” value is given as “low polyreactivity”.
As for “QVQLVESGGGLVQAGGSLRLSCAASGSTLKSYVMGWYRQAPGKERELVARISRSGGSTYYADSVKGRFTISRDNAKNTVYLQMNSLKPEDTAVYYCAAATPRLSYDYWGQGTQVTVSS”, the “polyreactivity (PSR sort gate)” value is on record as “high polyreactivity”.
The result for “QVQLVESGGGLVQAGGSLRLSCAASGLTFPSYAMGWYRQAPGKERELVASISSGGSTTYADSVKGRFTISRDNAKNTVYLQMNSLKPEDTAVYYCAAGRYVLRRGYYYWGQGTQVTVSS” reads “high polyreactivity”.
On to “QVQLVESGGGLVQAGGSLRLSCAASGRIFKKNAMGWYRQAPGKERELVAAISARGGSTYYADSVKGRFTISRDNAKNTVYLQMNSLKPEDTAVYYCAADEVDESIHYYTFDYWGQGTQVTVSS”, for which the “polyreactivity (PSR sort gate)” value is “high polyreactivity”.
As for “QVQLVESGGGLVQAGGSLRLSCAASGSIFQPYAMGWYRQAPGKERELVAAISSSGGSTTYADSVKGRFTISRDNAKNTVYLQMNSLKPEDTAVYYCAADSADDMGYWGQGTQVTVSS”, the “polyreactivity (PSR sort gate)” value was “low polyreactivity”.
The result for “QVQLVESGGGLVQAGGSLRLSCAASGFTFARYAMGWYRQAPGKERELVAAISISGGRTYYADSVKGRFSISRDNAKNTVYLQMNSLKPEDTAVYYCNKGHVPSYDYNYWGQGTQVTVSW” reads “high polyreactivity”; that for “QVQLVESGGGLVQAGGSRRLSCAASGSTFQYNAMGWYRQAPGKDREWVAAITGSGGSTYYADSVKGRFTISRDNSKNTVYLQMNSLKPEDTAVYYCAKRVRSFNWVLARHKYDYWGQGTQVTVSS”, “low polyreactivity”.
The result for “QVQLVESGGGLVQAGGSLRLSSAASGSIFELNAMGWYRQAPGKERELVAAIRWRTGRTYYADSVKGRFTISRDNAKNTVYLQMNSLKPEDTAVYYCARVAPASGVRWYYYWGQGTQVTVSS” reads “high polyreactivity”; that for “QVQLVESGGGLVQAGGSLRLSCAASGFTFYGNAMGWYRQAPGKERELVAAISSTGGSTFYADSVKGRFTISRDNAKNTVYLQMNSLKPEDTAVYYCAVRRYTKFRSTRYYYWGQGTQVTVSS”, “high polyreactivity”.
Regarding “QVQLVESGGGLVQAGGSLRLSCAASGSTFYINAMGWYRQAPGKERELVAAISWSTTITYYADSVKGRFTISRDNAKNTVYLQMNSLKPEDTAVYYCAAEEEYWDYSGGGYWGQGTQVTVSS”, the “polyreactivity (PSR sort gate)” value was “high polyreactivity”.
Consider “QVQLVESGGGLVQAGGSLRLSCAASGSIFNRYAMGWYRQAPGKEREIVAAISTHTGTTYYADSVKGRFTISRDNAKNTVYLQMNSLKPEDTAVYYCDKRSRYGYGKSYDYWGQGTQVTVSS”, for which the “polyreactivity (PSR sort gate)” value is “high polyreactivity”.
Then “QVQLVESGGGLVQAGGSLRLSCAASGSIFRFYTMGWYRQAPGKERELVAAIRYRGTSTYYADSVKGRFTISRDNAKNTVYLQMNSLKPEDTAVYYCATRNIYFSSVDYWGQGTQVTVSS”, with “high polyreactivity”.
Then “QVQLVESGGGLDQAGGSLRLSCAASGITLTNNAMGWYRQAPGKERELVAAITRSGGSTYYADSVKGRFTISRDNAKNTVYLQMNSLKPEDTAVYCAARWYSYSGSIRSYDYCGQGTQVTVSS”, with “low polyreactivity”; and “QVQLVESGGGLVQAGGSLRLSCAASGFTFVGYPLGWYRQATGKERELVAAISVSGGRTYYADSVKGRFTISRDNAMNTVYLQMKSLNPEDTAVYYCNAASPSYADFDYWGQGTQVTVSS”, with “high polyreactivity”.
As to “QVQLVESGGCLVQAGGSLRLSCAASGSIFDRYAMGWYRQAPGKERGLVAAISSSGGSTYYADSVKGRFTISRDNAKNTVYLQMNSLKPEDTAVYYCAAEYYASPYYWSYDYWGQGTQVTVSS”, the “polyreactivity (PSR sort gate)” value is on record as “high polyreactivity”.
As for “QGQLVESGGGLVQAGGSLRLSCAASGRTVGEYTMGWSRPAPGKERELVAAISSAGRTNYADSVKGRFTISRDNAKNTVYLQMHRLKPEDTAVYYCAADWTDDVPGYDYWGQGTKVTVSS”, the “polyreactivity (PSR sort gate)” value is “low polyreactivity”.
Then “QVQLVESGGGLVQAGGSLRLSCAASGSIFDYNAMGWNRQAPGKDRELVAAISSGGSTYYADSVKGRFTISRDNAKNTVYLQMNSLKPEDTAVYYCAVKFWMVIQFDYWGQGTQVTVSS”, with “low polyreactivity”; and “QVQLVESGGGLVQAGGSLRLSCADSGFIFPNYGMGSYRQAPGKERELVAYADSVKGRFTISRDNAKNTVYLQMNSLKPEDTAVYYCNADPPYTRWADYWHGGGYWGQGTQVTVSS”, with “low polyreactivity”.
In the case of “QVQLVESVAGLVQAGGSLRLSCAASGSIFRFYAMGWYRQAPGKERELVAGITWSGASTYYADSVKGRFTISRDNAKNTVYLQMNSLKPEDTAVYYCAKRYRLDGFYYWGQGTQVTVSS”, the “polyreactivity (PSR sort gate)” value is “high polyreactivity”.
As to “QVQLVESGGGLVQAGGSLRLSCAASGITFRTYAMGWYRQAPGKERELVAAISSSGGSTYYADSVKGRFTISRDNAKNTVYLQMNSLKPADTAVYYCAAEWIADLSSPVWYDYWGQGTQVTVSS”, the “polyreactivity (PSR sort gate)” value was “high polyreactivity”.
For the sequence “QVQLVESGGGLVQAGGSLRLSCAASGSTFDTYAMGWYRQAPGKEREFVATITGSGGSTYYADSVKVRFTITRDNAKNTVYLQMNSLKPEDTAVYYCNAETYIDLRGKFPVEYDYWGQGTQVTVSS”, the “polyreactivity (PSR sort gate)” value is listed as “low polyreactivity”.
“QVQLVESGGGLVQAGGSLRLSCAASGRTFSGYAMGWYRQAPGKERELVAAITSSGSSTYYADSVKGRFTISRDNAKNTVYLQMNSLKPEDTAVYYCAATPQAHSERYYYQRKYDYWGQGTQVTVSS”: the “polyreactivity (PSR sort gate)” value is “low polyreactivity”.
As for “QVQLVDSGGGLVQAGGSLRLSCAASGRTFGYYAMGWYRQAPGKERELVAAISWRGTSTYYADSVKGRFTISRDNAKNTVYLQMNSLKPEDTAVYYCAVGRTVAHRFIAGDYWGQGTQVTVSS”, the “polyreactivity (PSR sort gate)” value is recorded as “high polyreactivity”.
The result for “QVQLVESGGGLVQAGGSLRLICAASGGPFGYYTMGWYRQAPGKERELVAAISSGGGTDYADSVKGRFTISRDNAKNTVYLQMNSLKPEDTAVYYCNAKWLEWHYVFLPSYTMDYWGQGTQVTVSS” reads “low polyreactivity”; that for “QVQLVESGGGLVQAGGSLRLSCAASGRTFWNYAMGWYRQAPGKEREMVAVIRFSDGSTYYADSVKGRFTISRDNAKNTVYLQMNSLKPEDTAVYYCAAKGPRRWGSGFDYWGQGTQVTVSS”, “low polyreactivity”.
“QVQLVESGGGLVQAGGSLRLSCAASGGSFYPYAMGWYRQAPGKERELLAAISWSGDITYYADSVKGRFTISRDNAKNTVYLLINSLKPEDTAVYYCAAGRVVDKDPSYFREGDYWGQGTQVTVSS”: the “polyreactivity (PSR sort gate)” value is recorded as “low polyreactivity”.
Regarding “QVQLVESGGGLVQAGGSLRLSCAASRRIFSDNAMGWNRKAPGKERELVAAITFRDGSTYADSVKGRFTISRDNAKNTVYLPMNSLKPEDTAVYYCNRRSQVHSHSKHDYWGQGTQVTVSS”, the “polyreactivity (PSR sort gate)” value is recorded as “low polyreactivity”.
